{
  "source": "paper PMC5999986",
  "binders": {"B1": {"name": "20-bp DosR regulon consensus DNA (EM1/EM2) (dsDNA)", "DNA 1": "TTGGGGACTAAAGTCCCTAA", "DNA 2": "TTAGGGACTTTAGTCCCCAA"}},
  "target": "DosR (DosRwt) (Mycobacterium tuberculosis, UniProt P9WMF9 1-217)",
  "test": "EMSA; 4, 8, 16 uM protein; 20 mM MgCl2; […]; ITC: 20 mM Tris pH 8.0, 200 mM NaCl, 25 C, […]",
  "conditions": "protein: recombinant; tags: His6 (N-terminal from pET28a NdeI/HindIII; C-terminal His6 encoded by primer PTD2 in pT7-dosR); chain copies: 2; label: none (ethidium bromide stain); blunt",
  "data": [
    {"binder": "B1", "values": [
      {"measurement": "binding result", "result": "binds"}
    ]}
  ]
}
